These results are taken from EP2243792A1 (Spiber Technologies AB, dated 2010).

Series [1] concerns the molecule itself. Put plainly: self-association; polymerisation at pH 6, macroscopic formations and SEM.
The target of series [2] is NT, N-terminal domain of major ampullate spidroin (MaSp) 1 from Euprosthenops australis (Euprosthenops australis). Description: self-association; DLS, 100 mM phosphate buffer, pH 7.2.
For series [3] the target is unchanged. Description: self-association; DLS, 10 mM phosphate buffer, pH 6.0.
Series [4] has the same target. Description: self-association; DLS, 100 mM phosphate buffer, pH 6.2.
The target is the same in series [5]. Description: self-association; DLS, 10 mM phosphate buffer + 150 mM NaCl, pH 7.2.
The target is the same in series [6]. Description: self-association; DLS, 10 mM phosphate buffer + 150 mM NaCl, pH 6.1.
For series [7] the target is unchanged. Description: self-association; DLS, 10 mM phosphate buffer, pH 7.2.
Series [8] has the same target. Description: self-association; DLS, 10 mM phosphate buffer + 300 mM NaCl, pH 6.2.
Series [9] has the same target. Description: self-association; DLS, 10 mM phosphate buffer + 300 mM NaCl, pH 7.2.
Series [10] deals with the molecule itself. Put plainly: self-association; turbidimetry at different pH values.

B1: NT4RepCT (other)
chain: MKASHTTPWTNPGLAENFMNSFMQGLSSMPGFTASQLDDMSTIAQSMVQSIQSLAAQGRTSPNKLQALNMAFASSMAEIAASEEGGGSLSTKTSSIASAMSNAFLQTTGVVNQPFINEITQLVSMFAQAGMNDVSASASAGASAAASAGAASGQGGYGGLGQGGYGQGAGSSAAAAAAAAAAAAGGQGGQGQGGYGQGSGGSAAAAAAAAAAAAAAAGRGQGGYGQGSGGNAAAAAAAAAAAAAAAGQGGQGGYGRQSQGAGSAAAAAAAAAAAAAAGSGQGGYGGQGQGGYGQSSASASAAASAASTVANSVSRLSSPSAVSRVSSAVSSLVSNGQVNMAALPNIISNISSSVSASAPGASGCEVIVQALLEVITALVQIVSSSSVGYINPSAVNQITNVVANAMAQVMGKLAAALEHHHHHH
notes: Non-natural minispidroin: NT, repetitive fragment and C-terminal domain; Made as an N-terminal fusion to His6; also called NT4RepCTHis; minispidroin NT4RepCT
For the molecule B1, the binding result in series [1] is “binds”.

B2: NT, N-terminal domain of major ampullate spidroin (MaSp) 1 from Euprosthenops australis (protein)
chain: GSGNSHTTPWTNPGLAENFMNSFMQGLSSMPGFTASQLDDMSTIAQSMVQSIQSLAAQGRTSPNKLQALNMAFASSMAEIAASEEGGGSLSTKTSSIASAMSNAFLQTTGVVNQPFINEITQLVSMFAQAGMNDVSA
B2: the % particles worked out at 99.9% in series [2]; 100% in [3]; 99.9% in series [4]; 99.9% in [5]; 96.8% in series [6]; 99.8% in series [7]. Moreover, the % particles in series [8] and in series [9] was 99.9% each time. Further, the Size (nm) in series [2] came to 4.2 nm; in series [3], 687 nm; in series [4] it was 4.2 nm; in series [5] it was 4.1 nm; in series [6] it was 710 nm; in [7], 4.5 nm. Besides, the values for the Size (nm) in [8] and in series [9] were 4.4 nm and 4.3 nm, respectively.

B3: NT5Rep (other)
chain: GSGNSHTTPWTNPGLAENFMNSFMQGLSSMPGFTASQLDDMSTIAQSMVQSIQSLAAQGRTSPNKLQALNMAFASSMAEIAASEEGGGSLSTKTSSIASAMSNAFLQTTGVVNQPFINEITQLVSMFAQAGMNDVSASASAGASAAASAGAPGYSPAPSYSSGGYASSAASAAAAAGQGGPGGYGPAPNQGASSAAAAAAGSGQGPSGPYGTSYQISTQYTQTTTSQGQGYGSSSAGAAAAGAAGAGQGGYGGQGQGGYGQGAGGAAAAAAAAAAAAAAAGQGGQGGGGYGQGGQGGQGGQGQGGYGQGAGSSAAAAAAAAAAAAAAGRGQGGYGPGSGG
notes: Non-natural minispidroin; Made as a C-terminal fusion to His6TrxHis6, tag removed
B3: in series [10], the binding result is given as “binds”.

B4: NT4Rep (other)
chain: GSGNSHTTPWTNPGLAENFMNSFMQGLSSMPGFTASQLDDMSTIAQSMVQSIQSLAAQGRTSPNKLQALNMAFASSMAEIAASEEGGGSLSTKTSSIASAMSNAFLQTTGVVNQPFINEITQLVSMFAQAGMNDVSASASAGASAAASAGAASGQGGYGGLGQGGYGQGAGSSAAAAAAAAAAAAGGQGGQGQGGYGQGSGGSAAAAAAAAAAAAAAAGRGQGGYGQGSGGNAAAAAAAAAAAAAAAGQGGQGGYGRQSQGAGSAAAAAAAAAAAAAAGSGQGGYGGQGQGGYGQS
notes: Non-natural minispidroin: NT domain plus a repetitive fragment derived from E. australis MaSp1; Made as a C-terminal fusion to His6TrxHis6, tag removed; also called minispidroin NT4Rep
B4: in series [1], the binding result is on record as “binds”.
